T1: human Elongation Factor Like-1 (EFL1) (human, UniProt Q7Z2Z2 1-1120)
T1 construct: human EFL1, GTPase, said to comprise 1120 residues; the expressed protein is fused to a TEV recognition site and a hexahistidine tag at the C-terminus; also called human EFL1; GTPase Elongation Factor Like-1; source: S. cerevisiae BCY123 (pRS426 backbone, GAL1/10 promoter), purified
T1 sequence: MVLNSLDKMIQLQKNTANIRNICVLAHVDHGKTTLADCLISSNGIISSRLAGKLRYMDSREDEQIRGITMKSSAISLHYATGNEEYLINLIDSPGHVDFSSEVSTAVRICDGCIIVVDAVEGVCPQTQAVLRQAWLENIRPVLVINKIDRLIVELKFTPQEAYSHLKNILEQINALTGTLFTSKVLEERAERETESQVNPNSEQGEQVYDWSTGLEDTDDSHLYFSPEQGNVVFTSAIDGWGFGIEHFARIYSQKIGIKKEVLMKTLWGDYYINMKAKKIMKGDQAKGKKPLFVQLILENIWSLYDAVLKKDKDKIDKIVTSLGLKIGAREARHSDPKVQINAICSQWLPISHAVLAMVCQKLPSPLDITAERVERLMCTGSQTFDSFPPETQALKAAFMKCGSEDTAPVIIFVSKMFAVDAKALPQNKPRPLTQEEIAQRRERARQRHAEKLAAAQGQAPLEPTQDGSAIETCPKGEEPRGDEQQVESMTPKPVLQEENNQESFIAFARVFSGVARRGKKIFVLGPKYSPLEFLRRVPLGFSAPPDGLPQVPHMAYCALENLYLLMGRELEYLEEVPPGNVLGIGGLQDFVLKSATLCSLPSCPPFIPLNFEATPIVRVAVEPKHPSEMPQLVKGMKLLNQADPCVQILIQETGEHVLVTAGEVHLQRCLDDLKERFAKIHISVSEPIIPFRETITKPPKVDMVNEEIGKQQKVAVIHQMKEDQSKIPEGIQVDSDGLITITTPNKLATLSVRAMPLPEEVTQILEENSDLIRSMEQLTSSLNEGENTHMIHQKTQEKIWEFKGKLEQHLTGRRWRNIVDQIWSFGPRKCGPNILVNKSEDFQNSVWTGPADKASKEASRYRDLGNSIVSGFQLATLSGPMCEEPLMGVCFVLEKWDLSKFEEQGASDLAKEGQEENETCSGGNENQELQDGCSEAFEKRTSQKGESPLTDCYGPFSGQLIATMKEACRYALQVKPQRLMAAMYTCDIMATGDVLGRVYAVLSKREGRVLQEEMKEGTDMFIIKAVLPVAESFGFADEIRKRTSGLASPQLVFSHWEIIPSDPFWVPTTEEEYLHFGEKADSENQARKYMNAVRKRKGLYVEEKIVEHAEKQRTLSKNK

T2: yeast SBDS orthologue Sdo1 (recombinant, for SAXS) (yeast (S. cerevisiae), UniProt Q07953 1-250)
T2 construct: Sdo1, the yeast orthologue of SBDS; called the full-length Sdo1; source: E. coli C41 (pRSET plasmid), purified by conventional chromatographic techniques
T2 sequence (looked up): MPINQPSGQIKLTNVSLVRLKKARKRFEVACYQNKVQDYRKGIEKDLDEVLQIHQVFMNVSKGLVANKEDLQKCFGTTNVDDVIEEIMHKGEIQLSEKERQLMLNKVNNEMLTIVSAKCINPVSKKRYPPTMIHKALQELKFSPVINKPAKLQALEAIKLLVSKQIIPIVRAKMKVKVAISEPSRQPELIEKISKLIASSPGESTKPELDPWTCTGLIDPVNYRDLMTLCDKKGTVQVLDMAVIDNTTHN


Columns and labels:
[1] = target: T1, human Elongation Factor Like-1 (EFL1); experiment: fluorescence polarisation; fluorescence anisotropy; 2 µL additions of 40-90 µM human EFL1 titrated into 300 µL of 0.1 µM Lumio Green-labelled human SBDS-FlAsH construct; 25 °C; 50 mM Tris-HCl pH 8, 300 mM NaCl, 5 mM β-mercaptoethanol; fitted to a single-site or a two different binding sites model; details: both partners purified
[2] = target: T2, yeast SBDS orthologue Sdo1 …; experiment: SAXS coupled to on-line size exclusion chromatography; yeast Sdo1, EFL1 and the complex EFL1•Sdo1 at 10, 6.5 and 8 mg/mL injected onto a Shodex KW-403 column; 50 mM Tris pH 8.0, 10% glycerol, 300 mM NaCl, 5 mM MgCl2; details: both partners purified

| Kd [1] | stoichiometry N [2] | Binder |
| --- | --- | --- |
| 15.2 ± 0.72 µM | – | human SBDS domain 1 (residues 1-94) with C-terminal FlAsH tag, labelled with Lumio Green (domain or fragment, UniProt Q9Y3A5 1-94, looked up, Lumio Green dye (4',5'-bis(1,3,2-dithioarsolan-2-yl) fluorescein) on the C-terminal FlAsH tag, human SBDS, domain 1, residues 1-94; also called domain 1 of SBDS; source: E. coli C41 (pRSET plasmid), purified by conventional chromatographic techniques; not shown: FlAsH tag (Cys-Cys-Pro-Gly-Cys-Cys), C-terminal, kept) MSIFTPTNQIRLTNVAVVRMKRAGKRFEIACYKNKVVGWRSGVEKDLDEVLQTHSVFVNVSKGQVAKKEDLISAFGTDDQTEICKQILTKGEVQ |
| 10.8 ± 0.9 µM | – | human SBDS domain 2 (residues 94-175) with C-terminal FlAsH tag, labelled with Lumio Green (domain or fragment, UniProt Q9Y3A5 94-175, looked up, Lumio Green dye (4',5'-bis(1,3,2-dithioarsolan-2-yl) fluorescein) on the C-terminal FlAsH tag, human SBDS, domain 2, residues 94-175; also called domain 2 of SBDS; source: E. coli C41 (pRSET plasmid), purified by conventional chromatographic techniques; not shown: FlAsH tag (Cys-Cys-Pro-Gly-Cys-Cys), C-terminal, kept) QVSDKERHTQLEQMFRDIATIVADKCVNPETKRPYTVILIERAMKDIHYSVKTNKSTKQQALEVIKQLKEKMKIERAHMRLR |
| – | 1 | yeast EFL1 (recombinant, for SAXS) (enzyme, yeast (S. cerevisiae), UniProt P53893 1-1110, looked up, yeast EFL1 (GTPase); the model's rigid parts run over residues 1-1110; source: S. cerevisiae BCY123 (pRS426 backbone, GAL1/10 promoter), purified) MPRVESETYKRLQNDPSCIRNICIVAHVDHGKTSLSDSLLASNGIISQRLAGKIRFLDARPDEQLRGITMESSAISLYFRVLRKQEGSDEPLVSEHLVNLIDSPGHIDFSSEVSAASRLCDGAVVLVDVVEGVCSQTVTVLRQCWTEKLKPILVLNKIDRLITELQLTPQEAYIHLSKVIEQVNSVIGSFFANERQLDDLFWREQLEKNENAEYIEKDDSGIYFNPTDNNVIFASAIDGWGFNIGQLAKFYEQKLGAKRENLQKVLWGDFYMDPKTKKIINNKGLKGRSLKPLFTSLILENIWKIYQNIITSRDSEMVEKIAKTLNIKLLARDLRSKDDKQLLRTIMGQWLPVSTAVLLTVIEKLPSPLESQTDRLNTILVSESDTAAMDPRLLKAMKTCDKEGPVSAYVSKMLSIPREELPVESKRIASSDELMERSRKAREEALNAAKHAGMVENMAMMDLNDNSKNTSDLYKRAKDTVMTPEVGEQTKPKPSRNNDVFCVVSEPSSALDLEFEYEGEDDSDSQDNFGLDFVPTDIDPNDPLSSMFEYEEEDPLLESIKQISEDVNDEVDDIFDEKEECLVAFARIYSGTLRVGQEISVLGPKYDPKCPEEHIETAIITHLYLFMGKELVPLDVCPSGNIVGIRGLAGKVLKSGTLIEKGVQGVNLAGVNFHFTPIVRVAVEPANPVEMSKLVRGLKLLDQADPCVHTYVENTGEHILCTAGELHLERCLKDLTERFAGIEITHSEPAIPYRETFLSASDMNPPQNSQLGRGVHELLLSQYKITFRTFPLSGKVTDFLSQHQNSIKNILKTSTSSMDPVIESTGSSFLDKKSLLVAFEEVINQEEKSRELLSGFKVKLAGFGPSRVGCNILLSQDNLLGSLFEGTPAAFEYSDSIKNGFQLAVSEGPLANEPVQGMCVLVESVHKMSQDEIESIEDPRYQQHIVDLSGRLITSTRDAIHEAFLDWSPRIMWAIYSCDIQTSVDVLGKVYAVILQRHGKIISEEMKEGTPFFQIEAHVPVVEAFGLSEDIRKRTSGAAQPQLVFSGFECIDLDPFWVPTTEEELEELGDTADRENIARKHMNAIRRRKGLFIEEKVVENAEKQRTLKKN |
| 4.6 ± 0.3 µM | – | human SBDS domains 2-3 (residues 94-250) with C-terminal FlAsH tag, labelled with Lumio Green (domain or fragment, UniProt Q9Y3A5 94-250, looked up, Lumio Green dye (4',5'-bis(1,3,2-dithioarsolan-2-yl) fluorescein) on the C-terminal FlAsH tag, human SBDS, domains 2-3, residues 94-250; also called construct consisting of domains 2-3 of SBDS; source: E. coli C41 (pRSET plasmid), purified by conventional chromatographic techniques; not shown: FlAsH tag (Cys-Cys-Pro-Gly-Cys-Cys), C-terminal, kept) QVSDKERHTQLEQMFRDIATIVADKCVNPETKRPYTVILIERAMKDIHYSVKTNKSTKQQALEVIKQLKEKMKIERAHMRLRFILPVNEGKKLKEKLKPLIKVIESEDYGQQLEIVCLIDPGCFREIDELIKKETKGKGSLEVLNLKDVEEGDEKFE |
